Laboratory results taken from paper PMC6380570.

Assays:
[1] = molecular target: S100A1 protein (1-93 amino acids)
[2] = molecular target: S100A1 protein (1-93 amino acids); assay: other fluorescence titration; tryptophan fluorescence of S100A1 (3.50 uM; excitation 295 nm, emission 344 nm); S100A4 added from 0 to 10.50 uM in steps of about 0.70 uM; 0.1 mM EDTA, 8 mM NaCl, 0.34 mM NaN3, 6 mM CaCl2, 16 mM Tris, pH 6.0; linear (double-reciprocal) fit

## S100A4 (Mts1) protein (from UniProt P26447 4-101) (natural protein)
[1]
  WST-1 proliferation assay of SW480 cells (which contain RAGE) treated with the S100A4-S100A1 complex (100 nM), against S100A1 alone; pair said to be blocked: S100A1 and the RAGE V domain: 1.38 fold
[2]
  Kd: 6.2 µM
